The text below walks through data of US20250163164A1 (LANOVA MEDICINES DEVELOPMENT, published 2025).

Positions count from the first letter of the chain named. Where “and” joins values, the source holds several entries; their conditions need not be identical. Identical values can stand only once.

T1: human interleukin 13 receptor subunit alpha 2 (IL-13RA2) (human, UniProt Q14627 27-380)
T1 construct: whole, on cells; also called IL-13Rα2; CD213A2
T1 sequence (looked up): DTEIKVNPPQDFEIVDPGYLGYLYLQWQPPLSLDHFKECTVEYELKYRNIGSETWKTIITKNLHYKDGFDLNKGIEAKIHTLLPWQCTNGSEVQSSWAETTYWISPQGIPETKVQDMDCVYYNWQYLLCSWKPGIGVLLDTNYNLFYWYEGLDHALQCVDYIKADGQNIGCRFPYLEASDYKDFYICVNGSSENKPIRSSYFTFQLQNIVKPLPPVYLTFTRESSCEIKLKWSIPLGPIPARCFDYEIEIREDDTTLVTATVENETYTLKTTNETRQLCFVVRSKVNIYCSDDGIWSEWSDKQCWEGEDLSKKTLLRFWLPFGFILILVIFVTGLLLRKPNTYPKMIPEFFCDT

B1: 73A11E2 H2L2 hIgG1 (antibody, V domains shown)
VH: QVQLVQSGAEVVKPGASVKVSCKASGFTFSSYGMSWVRQAPGQGLEWVGTISGGGSYTYYPESVKGRFTITRDTSTSTAYMELRSLRSDDTAVYYCARRDLRSAMDYWGQGTLVTVSS
VL: DIVMTQSPLSLPVTLGQPASISCKASQNVDINVAWYQQRPGQSPRALIYSASYRYSGVPDRFSGSGSGTDFTLKISRVEAEDVGVFYCQQYNAYPLTFGQGTKLEIK
notes: humanized, hIgG1
B2: 73A11E2 H4L1 hIgG1 (antibody, V domains shown)
VH: B1 VH with Q3K, Q6E, V20L, G44R, G49A, T74N, A79L, M81L, L83M
VL: B1 VL with I2V, Y36F, A46R, F86Y
notes: humanized, hIgG1
B3: 73A11E2 H4L4 hIgG1 (antibody, V domains shown)
VH: B1 VH with Q3K, Q6E, V20L, G44R, G49A, T74N, A79L, M81L, L83M
VL: B1 VL with V13T, A19V, I21V, K74T, G84A, Y87F, Q100G
notes: humanized, hIgG1
B4: 73A11E2 H4L2 hIgG1 (antibody, V domains shown)
VH: B1 VH with Q3K, Q6E, V20L, G44R, G49A, T74N, A79L, M81L, L83M
VL: B1 VL
notes: humanized, hIgG1
B5: 73A11E2 H2L3 hIgG1 (antibody, V domains shown)
VH: B1 VH
VL: B1 VL with V13T, K74T, Q100G
notes: humanized, hIgG1
B6: 73A11E2 H3L4 hIgG1 (antibody, V domains shown)
VH: B1 VH with V20L, G49A, T74N, A79L, L83M
VL: B1 VL with V13T, A19V, I21V, K74T, G84A, Y87F, Q100G
notes: humanized, hIgG1
B7: 73A11E2 H1L3 hIgG1 (antibody, V domains shown)
VH: B1 VH with V12K, V48M, F68V, I70M, R72T
VL: B1 VL with V13T, K74T, Q100G
notes: humanized, hIgG1
B8: 73A11E2 H3L1 hIgG1 (antibody, V domains shown)
VH: B1 VH with V20L, G49A, T74N, A79L, L83M
VL: B1 VL with I2V, Y36F, A46R, F86Y
notes: humanized, hIgG1
B9: 73A11E2 H3L3 hIgG1 (antibody, V domains shown)
VH: B1 VH with V20L, G49A, T74N, A79L, L83M
VL: B1 VL with V13T, K74T, Q100G
notes: humanized, hIgG1
B10: 73A11E2 H3L2 hIgG1 (antibody, V domains shown)
VH: B1 VH with V20L, G49A, T74N, A79L, L83M
VL: B1 VL
notes: humanized, hIgG1
B11: 73A11E2 H2L4 hIgG1 (antibody, V domains shown)
VH: B1 VH
VL: B1 VL with V13T, A19V, I21V, K74T, G84A, Y87F, Q100G
notes: humanized, hIgG1
B12: 73A11E2 H4L3 hIgG1 (antibody, V domains shown)
VH: B1 VH with Q3K, Q6E, V20L, G44R, G49A, T74N, A79L, M81L, L83M
VL: B1 VL with V13T, K74T, Q100G
notes: humanized, hIgG1
B13: 73A11E2 H2L1 hIgG1 (antibody, V domains shown)
VH: B1 VH
VL: B1 VL with I2V, Y36F, A46R, F86Y
notes: humanized, hIgG1
B14: 72B4H4 H4L1 hIgG1 (antibody, V domains shown)
VH: QVQLVQSGAEVVKPGASVKLSCKASGYTFTNYWMNWVKQRPGQGLEWIGRIDAYAGETHYNQKFKDRAILTVDKSTSTAYMELRSLRSEDTAVYYCARGYGDAYGMDHWGQGTLVTVSS
VL: DIQMTQSPSSLSASVGDRVTITCRASESVDNYGISFMNWYQQKPGKAPKLLIYAASRQGSGVPSRFSGSGSGTDFTLTISSLQPEDFATYYCQQSKEVPWTFGQGTKVEIK
notes: humanized, hIgG1
B15: 72B4H4 H4L4 hIgG1 (antibody, V domains shown)
VH: B14 VH
VL: B14 VL with Q3V, M4L, V19A, Y40F, A47P, V62D, S64A, Y91F, Q104G, V108L
notes: humanized, hIgG1
B16: 72B4H4 H4L3 hIgG1 (antibody, V domains shown)
VH: B14 VH
VL: B14 VL with M4L, Y40F, V62D, S64A, Y91F, Q104G
notes: humanized, hIgG1
B17: 72B4H4 H4L2 hIgG1 (antibody, V domains shown)
VH: B14 VH
VL: B14 VL with Y40F, V62D, Y91F
notes: humanized, hIgG1
B18: 72B4H4 (antibody, V domains shown)
VH: QVQLQQPGAERVRPGASVKLSCKASGYTFTNYWMNWVKQRPEQGLEWIGRIDPYAGETHYNQKFKDKAILTVDKSSSTAYMQLRSLTSEDSAVYYCARGYGDSYGMDHWGQGTSVTVSS
VL: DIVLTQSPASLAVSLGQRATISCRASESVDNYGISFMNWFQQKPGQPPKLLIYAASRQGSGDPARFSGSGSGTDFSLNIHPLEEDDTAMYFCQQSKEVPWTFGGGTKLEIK
notes: purified mouse antibody
B19: 62A8D8 (antibody, V domains shown)
VH: EVKLVESGGGLVKPGGSLKLSCAASGFTFSSYGMSWVRQTPEKRLEWVATISGGGSYTYYPDSVKGRFTISRDNAKNNLYLQMSSLRSEDTALYYCARRDLRSAMDYWGQGTSVTVSS
VL: DIVMTQSQKFMSTSVGDRVSVTCKASQNVDINVAWYQQKPGQSPKALIYSASYRYSGVPDRFTGSGSGTDFTLTISNVQSEDLAEFFCQQYNNYPLTFGGGTKLEIK
notes: purified mouse antibody
B20: 74B5E4 (antibody, V domains shown)
VH: B19 VH with K19R, S31T
VL: B19 VL with F86Y, N93T
notes: purified mouse antibody
B21: 73A11E2 (antibody, V domains shown)
VH: B19 VH with K76R, S84N
VL: B19 VL with N93S
notes: purified mouse antibody
B22: 42E3C4 (antibody, V domains shown)
VH: B19 VH with K13R, L20I, S31T
VL: B19 VL with Y53F, F86Y, N93S
notes: purified mouse antibody
B23: 54A4F7 (antibody, V domains shown)
VH: B19 VH with Y107H
VL: B19 VL with K24R, A46S, F86Y, N93S, K107R
notes: purified mouse antibody
B24: 62F6A8 (antibody, V domains shown)
VH: QVQIQQSGAELARPGASVMLSCKASGYTFTDYWMQWIKQRPGQGLEGIGAIYPGDGDTAYNQKFRGKATLTADKSSSTAYMQLNSLASEDSAVYFCARGATLLRPFPFWGQGTLVTVSA
VL: DIVMTQSHKFMSTSVGDRVSITCKASQDVSTAVAWYQQKPGQSPKLLIYSASYRYAGVPDRFTGSGSGTDFTFTISSVQAEDLAVYSCQQHYSIPPTFGGGTKLEIK
notes: purified mouse antibody
B25: 61H8C1 (antibody, V domains shown)
VH: B24 VH with I4L, D31S, M34T, G56D, A59S, R65K, A87T, F95Y, F108Y
VL: B24 VL with A56T
notes: purified mouse antibody
B26: 57F8H3F1 (antibody, V domains shown)
VH: QVQLQQPGAELVRPGASVKLSCKASGYTFTNYWMNWIKQRPEQGLEWIGRIDPYETETHYNQKFRDRAILTVDKSSSTAFMQLSGLTSEDSAVYYCARGYGHYYGVDYWGQGTSVTVSS
VL: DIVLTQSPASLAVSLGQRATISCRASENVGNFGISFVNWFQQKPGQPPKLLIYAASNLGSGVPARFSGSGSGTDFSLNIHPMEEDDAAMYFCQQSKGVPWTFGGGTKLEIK
notes: purified mouse antibody
B27: 34A5G9 (antibody, V domains shown)
VH: EVHLQQSGPELVKPGASVKISCKTSGYTFTEYTMHWVKQSHGKSLEWIGRINPNNGIAEYKQTFKDKATLAVDKSSSTAYMEFRSLTSEDSAVYYCARGEGYGYWFAYWGQGTLVTVSA
VL: DIQMTQSPASLSASVGETVTITCRTSDNIYSYLAWYQQRQGKSPQLLVSNARTLAEGVPSRFSGSGSGTQFSLKINSLQPEDFGIYYCQHHSGTPFTFGSGTNLEIE
notes: purified mouse antibody
B28: 51G2B3 (antibody, V domains shown)
VH: QVQLQQSGPELVKPGASVKISCKASGYAFSDSWMNWVKQRPGQGLEWIGRIYPGDGDTNYNGKFKGKATLTADKSSNTAYMQLSSLTSVDSAVYFCARSWNGSPWFPYWGQGTLVTVSA
VL: DVLMTQTPLSLPVSLGDQASISCRSSQTIAHRNGNTYLEWYLQKPGQSPKLLLYKVSNRFSGVPDRFSGSGSGTDFTLKISRVEAEDLGVYYCFQGSHVTWTFGGGTKLEIK
notes: purified mouse antibody

The target of one test is T1, human interleukin 13 receptor subunit …. In words: FACS on A375 cells. The protocol: A375 cells that endogenously expressed IL-13RA2, were harvested from flasks. 100 μl of 1×10⁶ cells/ml of cells were incubated with primary humanized antibodies in 4-fold serial dilutions starting from 200 nM to 0.003 nM for 30 minutes on ice. After being washed with 200 μl of FACS buffer twice, cells were incubated with secondary antibody for 30 minutes on ice. Cells were washed with 200 μl of FACS buffer twice and analyzed by FACS.
For orientation: EC50 means the concentration at which the effect is half-maximal. The molecule B1 had an EC50 of 0.67 nM.

For B2, the EC50 was 0.943 nM and 1.2 nM.

Regarding B3, the EC50 was 1.12 nM and 1.51 nM.

As to B4, the EC50 was 1.12 nM and 1.31 nM.

As for B5, the 50% effective concentration (EC50) was 0.69 nM and 0.67 nM.

Take B6: the concentration for a half-maximal effect (EC50) is 1.16 nM and 1.29 nM.

As to B7, the EC50 was ~251 nM and ~522 nM.

With B8, the half-maximal effective concentration (EC50) was 1.07 nM and 1.37 nM.

With B9, the EC50 is 1.49 nM and 1.17 nM.

Take B10: the EC50 is 2.22 nM and 1.53 nM.

B11: the 50% effective concentration (EC50) was 1.61 nM and 0.66 nM.

On to B12, for which the EC50 was 0.909 nM and 1.45 nM.

With B13, the EC50 was 0.6 nM and 0.56 nM.

In the case of B14, the 50% effective concentration (EC50) worked out at 0.552 nM and the “Top (MFI)” value was 8270 MFI.

Take B15: the EC50 amounted to 1.18 nM and the “Top (MFI)” value turned out to be 8180 MFI.

As for B16, the EC50 stood at 0.811 nM and the “Top (MFI)” value is 8470 MFI.

B17: the EC50 was 0.976 nM and the “Top (MFI)” value was determined as 8610 MFI.

A further test shares this target. In words: FACS on A375 cells. This is another data set of the same source. How it is done:
A375 cells that endogenously expressed IL-13RA2 were harvested from flasks. 100 μl of 1×10⁶ cells/ml of cells were incubated with primary antibodies in 4-fold serial dilutions starting from 100 nM to 0.006 nM for 30 minutes on ice. After being washed with 200 μl of FACS buffer twice, cells were incubated with secondary antibody for 30 minutes on ice. Cells were washed with 200 μl of FACS buffer twice and analyzed by FACS.
With B18, the EC50 came to 0.76 nM and the “Top (MFI)” value worked out at 262000 MFI.

Take B19: the EC50 was 0.9 nM and the “Top (MFI)” value worked out at 334000 MFI.

In the case of B20, it took 0.6 nM to reach a half-maximal effect (EC50) and the “Top (MFI)” value worked out at 268000 MFI.

On to B21, for which it took 0.71 nM to reach a half-maximal effect (EC50) and the “Top (MFI)” value was determined as 223000 MFI.

On to B22, for which the EC50 is 0.52 nM and the “Top (MFI)” value was 235000 MFI.

As to B23, the EC50 was determined as 0.84 nM and the “Top (MFI)” value worked out at 268000 MFI.

For B24, the EC50 amounted to 0.68 nM and the “Top (MFI)” value was found to be 217000 MFI.

For B25, the EC50 came to 0.41 nM and the “Top (MFI)” value stood at 203000 MFI.

On to B26, for which the response was half-maximal at 0.7 nM (EC50) and the “Top (MFI)” value was 246000 MFI.

With B27, the 50% effective concentration (EC50) was determined as 0.67 nM and the “Top (MFI)” value turned out to be 248000 MFI.

Turning to B28, the EC50 came to 0.87 nM and the “Top (MFI)” value worked out at 243000 MFI.
